Experimental data reported in patent publication US20120231000A1.

Experiments:
[1] = biological target: ratVEGF1-165 homodimer (recombinant full-length ratVEGF) (rat) (UniProt P16612); assay: ELISA on coated antigen
[2] = biological target: humVEGF1-165 homodimer (recombinant full-length humanVEGF) (human) (UniProt P15692); assay: ELISA titer on coated humVEGF1-165, 5000 ng/mL
Sequence of humVEGF1-165 homodimer (recombinant full-length humanVEGF) (human) (P15692 other isoform, or with tags, fused parts or gaps): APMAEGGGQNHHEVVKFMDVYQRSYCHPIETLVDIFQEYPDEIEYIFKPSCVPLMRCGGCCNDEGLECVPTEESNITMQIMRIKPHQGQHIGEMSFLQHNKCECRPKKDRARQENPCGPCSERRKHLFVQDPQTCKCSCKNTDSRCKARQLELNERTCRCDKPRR

Sequence of ratVEGF1-165 homodimer (recombinant full-length ratVEGF) (rat) (P16612 27-165, form in doubt): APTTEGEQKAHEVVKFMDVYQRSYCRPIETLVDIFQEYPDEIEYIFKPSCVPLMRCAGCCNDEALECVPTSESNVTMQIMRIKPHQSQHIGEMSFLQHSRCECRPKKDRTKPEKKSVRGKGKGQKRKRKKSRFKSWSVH

Avastin™ (Bevacizumab) (antibody) showed an ELISA signal at dilution 1/100 [1] of 236, an ELISA signal at dilution 1/300 [1] of 148 and an ELISA signal at dilution 1/1000 [1] of 103. The titer endblood [1] was under 1000 ng/mL.
For BioVision™ (control Ab) (antibody), the Titer (-10log dilution) [2] was 4.2.
